Reference: publication PMC7182274 (PLoS Pathogens, 2020)

How the values were obtained:
[1] = biological target: F. novicida DnaK (F. novicida)
[2] = biological target: T1, ΔNClpB (Francisella tularensis, UniProt A0Q8N0)
T1 construct: gene clpB

Compound | refolding of urea-denatured firefly luciferase with DnaK, DnaJ, GrpE and ATP [1] | ATPase activity [2]
F. novicida ClpB (wild-type) (natural protein) | 83% | 
Nc1ncnc2c1ncn2[C@@H]1O[C@H](COP(=O)(O)OP(=O)(O)OP(=O)(O)O)[C@@H](O)[C@H]1O [ATP] |  | ΔNClpB had a slightly increased basal ATPase activity in the absence of casein
